{"source": "patent US20100297662A1", "about": "(TAO HEALTH LIFE PHARMA, published 2010)", "binders": {"B1": {"name": "humanized antibody huASD2 (antibody, V domains shown)", "VH": "EVQLVESGGGLVKPGGSLRLSCAASGFTFSDYFMSWVRQAPGKGLEWVGGIEIKSYFYATYYFGSVKGRFTISRDDSKNTLYLQMNSLKTEDTAVYYCTTNREVGGLDNWGQGTLVTVSS", "VL": "QSVLTQPSSLSASPGASASLTCTLRSGISVGGKNIYWYQQKPGSPPQYLLKYSSYSNKQLGPGVPSRFSGSKDASANAGILLISGLQSEDEADYYCSIHESNAYVFGGGTKLTVLG", "notes": "Humanized from haASD2; expressed from plasmids ASD2RHApG1D200 (heavy chain) and ASD2RLApLN100 (light chain); also called RHA/RLA; ASD2RHA/ASD2RLA"}}, "key": {"amylospheroid 42 [1]": {"target": "T1, amylospheroid 42 (Homo sapiens (Human), UniProt P05067 672-713)", "T1 construct": "also called 42ASPD; ASPD", "T1 sequence (P05067 672-713 limits assumed)": "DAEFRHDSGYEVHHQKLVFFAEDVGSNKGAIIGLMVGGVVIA", "test": "SPR, ratio of Kd values (40Aβ against 42ASPD)", "procedure": "(§1) 10 μg/ml amylospheroid (42ASPD), amyloid β monomer (42Aβ, 40Aβ), and Aβ fibril (fibril) prepared from 40Aβ were coupled to CM5 sensor chips of BIACore 3000 (BIAcore) at a concentration of […] in 50 mM acetate buffer. With the use of an antibody solution subjected to two-fold serial dilution from the maximal concentration of 100 nM in a buffer (10 mM HEPES, pH 7.4, 0.15 M NaCl, 3 mM EDTA, 0.005% Surfactant P20), the association rate constant and the dissociation rate constant were determined. With the use of these constants, the dissociation constant was calculated by the following equation.\n(§2) Through the same procedure as that in Example 3(3), 42ASPD, 40Aβ (Aβ monomer), and Aβ fibril (42 fibril) prepared from 42Aβ were coupled to CM5 sensor chips, and dissociation constants of the hamster antibody haASD2, the humanized antibody huASD2, and the anti-Aβ antibody 3D6 (US 20030165496 A1) with respect to the above-described proteins were determined. […]"}, "amylospheroid 42 [2]": {"target": "T1, amylospheroid 42", "test": "SPR, ratio of Kd values (42 fibril against 42ASPD)", "procedure": "as §1, §2"}, "amylospheroid 42 [3]": {"target": "T1, amylospheroid 42", "test": "SPR (BIAcore), antigen on CM5 chip, antibody in solution", "procedure": "as §1\n(§3) Through the same procedure as that in Example 3(3), 42ASPD, 40Aβ (Aβ monomer), and Aβ fibril (42 fibril) prepared from 42Aβ were coupled to CM5 sensor chips, and dissociation constants of the hamster antibody haASD2, the humanized antibody huASD2, and the anti-Aβ antibody 3D6 (US 20030165496 A1) with respect to the above-described proteins were determined. The anti-Aβ antibody 3D6 was produced as follows: synthesis genes corresponding to the mouse antibody light chain variable domain 3d6vl.aa and the synthesis gene corresponding to the heavy chain variable domain 3d6vh.aa of the same described in US 20030165496 A1 were produced by a conventional method, and were joined to the light chain constant domain and the heavy chain constant domain of a known mouse antibody, respectively, on the basis of the information of the aforementioned patent; by so doing, it was produced as a mouse IgG2b/κ molecule."}, "[4]": {"target": "T2, monomeric amyloid β40-protein (Aβ1-40)", "T2 construct": "also called 40Aβ; Aβ1-40 monomer", "T2 sequence (peptide, as listed by the source)": "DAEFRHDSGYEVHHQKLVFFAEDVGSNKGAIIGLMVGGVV", "test": "SPR (BIAcore), antigen on CM5 chip, antibody in solution", "procedure": "as §1, §3"}, "[5]": {"target": "T3, Aβ fibril (42 fibril) prepared from 42Aβ (Homo sapiens (Human), UniProt P05067 672-713)", "T3 construct": "Fibrillar self-assembly of Aβ1-42; also called amyloid fibril", "T3 sequence (P05067 672-713 limits assumed)": "as the sequence (P05067 672-713 limits assumed) above", "test": "SPR (BIAcore), antigen on CM5 chip, antibody in solution", "procedure": "as §1, §3"}, "[6]": {"target": "T4, N-terminus peptide (Aβ1-5) of the monomeric amyloid β-protein", "T4 construct": "Synthetic 5-residue peptide", "T4 peptide": "DAEFR", "test": "competitive ELISA with 5-residue Aβ peptides, same method as Example 4", "description": "Which one of Aβ five residue peptides the humanized antibody huASD2 was joined to was examined using the same method as that in Example 4."}}}
{"binder": "B1", "values": [{"measurement": "fold higher affinity with ASPD than with amyloid β-monomer", "setting": "amylospheroid 42 [1]", "value": "~580", "unit": "times"}, {"measurement": "fold higher affinity with ASPD than with amyloid fibril", "setting": "amylospheroid 42 [2]", "value": "~6.4", "unit": "times"}, {"measurement": "Kd", "setting": "amylospheroid 42 [3]", "value": 0.18, "unit": "nM"}, {"measurement": "Kd", "setting": "[4]", "value": 105, "unit": "nM"}, {"measurement": "Kd", "setting": "[5]", "value": 1.15, "unit": "nM"}, {"measurement": "binding result", "setting": "[6]", "value": "binds"}]}
